We go through 16 molecules from patent publication US20250186614A1, “COMPACT DRUG RESPONSIVE DOMAINS FOR REGULATION OF FUNCTION/ABUNDANCE AND DELIVERY OF POLYPEPTIDE PAYLOADS” (OBSIDIAN THERAPEUTICS, INC., priority 2022, published 2025).

Assay [1] concerns Jurkat cells. The assay is described as follows: Tacrolimus dose response of FKBP13-AcGFP-mCherry constructs stably transduced into Jurkat cells, GFP MFI by flow cytometry. It counts as cell-based. The arrangement: Basal: unit not given here. In outline:
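GFP geometric MFI was read by flow cytometry in mCherry+ cells and curve-fitted against tacrolimus dose. Cells were Jurkat E6-1, lentivirus-transduced with FKBP13-AcGFP-mCherry fusion constructs until 10-25% mCherry-positive on day 5 post-transduction.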
On the technique in general: In flow cytometry, cells or beads pass a laser one at a time.

A short description of assay [2]: Example 4: dose response of FKBP constructs 160-255, Ec50, Ec90 and fold change (raw and normalized to mCherry). The assay is classed as cell-based. The following applies: for FC (fold change): fold change during initial analysis. The method, then:
Additional experiments were performed for constructs FKBP-160-292.

Setting [3] is: FKBP constructs 160-255, not normalized, read-out: EC90.
Where [4] appears, read: normalized to mCherry, read-out: EC90 (Norm).

Like-named read-outs stand apart in the source and are kept apart here.

B1: FKBP-195: combinatorial FKBP13 mutant construct of Table 10, carries K135Y (protein)
chain: HCPIKSRKGDVLHMHYTGKLEDGTEFDSSLPRNQPFVFSLGTGERIKGWDQGLLGMCEGEKRKLVIPSELGYGERGWPPKIPGGATLVFEVELLYIER
modifications: Description of sequence: Construct Name: FKBP-195; Mutation(s): Q72R Q84E A117W V85R DRD K135Y
What is called EC90 is the concentration needed for an effect of 90%. B1: the Basal is on record as 68.4 in assay [1] (FIG. 39) and 75.5 in assay [1] (FIG. 50). In addition, the FC in assay [1] (FIG. 39) is listed as 90; in assay [1] (FIG. 50), 61.07; in assay [1] (tacrolimus, FIG. 35), 89.61; in assay [1] (tacrolimus, FIG. 36) it was 89.61; in assay [1] (tacrolimus, FIG. 37) it was 89.61; in assay [1] (tacrolimus, FIG. 38), 89.61. Besides, the FC in assay [1] (tacrolimus, FIGS. 29 and 30) came to 66; in assay [1] (tacrolimus, FIGS. 31 and 32), 66; in assay [1] (tacrolimus, FIGS. 33 and 34) it was 66. Also, the Peak in assay [1] (FIG. 39) is on record as 5808; in assay [1] (tacrolimus, FIG. 35), 4362; in assay [1] (tacrolimus, FIG. 36) it was 4362; in assay [1] (tacrolimus, FIG. 37), 4362; in assay [1] (tacrolimus, FIG. 38), 4362. Also, in assay [1] (FIG. 50, at 10 uM), the “At 10 uM” value is listed as 4611. Further, the “basal AcGFP expression” value in assay [1] (absence of tacrolimus) is listed as “lowest basal expression”. For the same molecule, the results for the EC90 in assay [2] (setting [3]) and in assay [2] (setting [4]) were 165 nM and 140 nM, respectively. For the same molecule, the “FC (fold change)” value in assay [2] is given as 50.1.

B2: FKBP-193 (protein)
chain: HCPIKSRKGDVLHMHYTGKLEDGTEFDSSLPRNQPFVFSLGTGERIKGWAQGLLGMCEGEKRKLVIPSELGYGERGWPPKIPGGATLVFEVELLKIER
modifications: Description of sequence: Construct Name: FKBP-193; Mutation(s): Q72R Q84E A117W V85R DRD D90A
In the case of B2, the EC90 in assay [2] (setting [3]) is 13000 nM; in assay [2] (setting [4]), 15000 nM. The “FC (fold change)” value in assay [2] amounted to 37.8.

B3: FKBP-191: FKBP13 DRD-AcGFP construct of Table 10 (protein)
chain: HCPIKSRKSDVLHMHYTGKLEDGTEFDSSLPRNQPFVFSLGTGERIKGWDQGLLGMCEGEKRKLVIPSELGYGERGWPPKIPGGATLVFEVELLKIER
modifications: Description of sequence: Construct Name: FKBP-191; Mutation(s): Q72R Q84E A117W V85R DRD G49S
B3: the figures for the EC90 in assay [2] (setting [3]) and in assay [2] (setting [4]) were 367 nM and 391 nM, respectively. In assay [2], the “FC (fold change)” value worked out at 50.6.

B4: FKBP-199: FKBP13 DRD-AcGFP construct of Table 10 (protein)
chain: HCPIKSRKGDVLHMHYTGKLEDGTEFDSSLPRNQPFVFSLGTGERIKGWDQGLLGMCLGEKRKLVIPSELGYGERGWPPKIPGGATLVFEVELLKIER
modifications: Description of sequence: Construct Name: FKBP-199; Mutation(s): Q72R Q84E A117W V85R DRD E98L
Consider B4, for which the EC90 was determined as 71.7 nM in assay [2] (setting [3]) and 67.5 nM in assay [2] (setting [4]). In assay [2], the “FC (fold change)” value was found to be 27.1.

B5: FKBP-161 (protein)
chain: HCPIKSRKGDVLHSHYTGKLEDGTEFDSSLPRNQPFVFSLGTGERIKGWDQGLLGMCEGEKRKLVIPSELGYGERGWPPKIPGGATLVFEVELLKIER
modifications: Description of sequence: Construct Name: FKBP-161; Mutation(s): Q72R Q84E A117W DRD M54S V85R
Consider B5, for which the EC90 amounted to 512 nM in assay [2] (setting [3]) and 541 nM in assay [2] (setting [4]). Besides, in assay [2], the “FC (fold change)” value turned out to be 32.3.

B6: FKBP-201: FKBP13 DRD-AcGFP construct of Table 10 (protein)
chain: HCPIKSRKGDVLLMHYTGKLEDGTEFDSSLPRNQPFVFSLGTGERIKGWDQGLLGMCEGEKRKLVIPSELGYGERGWPPKIPGGATLVFEVELLKIER
modifications: Description of sequence: Construct Name: FKBP-201; Mutation(s): Q72R Q84E A117W V85R DRD H53L
Turning to B6, the values for the EC90 in assay [2] (setting [3]) and in assay [2] (setting [4]) were 144 nM and 153 nM, respectively. The “FC (fold change)” value in assay [2] stood at 33.1.

B7: FKBP-194 (protein)
chain: HCPIKSRKGDVLHMHYTGKLEDGTEFDSSLPRNQPFVFSLGTGERIKGWDQGLLGMCEGEKRKVVIPSELGYGERGWPPKIPGGATLVFEVELLKIER
modifications: Description of sequence: Construct Name: FKBP-194; Mutation(s): Q72R Q84E A117W V85R DRD L104V
Consider B7, for which the EC90 in assay [2] (setting [3]) is 102 nM; in assay [2] (setting [4]), 122 nM. Moreover, in assay [2], the “FC (fold change)” value was found to be 24.8.

B8: FKBP-202 (protein)
chain: HCPIKSRKSDVLHAHYTGKLEDGTEFDSSLPRNQPFVFSLGTGERIKGWDQGLLGMCEGEKRKLVIPSELGYGERGWPPKIPGGATLVFEVELLKIER
modifications: Description of sequence: Construct Name: FKBP-202; Mutation(s): Q72R Q84E A117W V85R DRD M54A G49S
With B8, the EC90 came out at 1010 nM in assay [2] (setting [3]) and 1060 nM in assay [2] (setting [4]). Further, the “FC (fold change)” value in assay [2] was found to be 46.2.

B9: FKBP-183 (protein)
chain: HCPIKSRKGDVLHAHYTGKLEDGTEFDSSLPRNQPFVFSLGTGERIKGWDQGLLGMCEGEKRKLVIPSELGYGERGWPPKIPGGATLVFEVEGLKIER
modifications: Description of sequence: Construct Name: FKBP-183; Mutation(s): Q72R Q84E A117W V85R DRD M54A L133G
For B9, the “FC (fold change)” value in assay [2] was found to be 4.

B10: FKBP-192: FKBP13 DRD-AcGFP construct of Table 10 (protein)
chain: HCPIKSRKGDVLHMHYTGKLEDGTEFDSSLPRNQLFVFSLGTGERIKGWDQGLLGMCEGEKRKLVIPSELGYGERGWPPKIPGGATLVFEVELLKIER
modifications: Description of sequence: Construct Name: FKBP-192; Mutation(s): Q72R Q84E A117W V85R DRD P75L
Take B10: the EC90 in assay [2] (setting [3]) came to 230 nM; in assay [2] (setting [4]) it was 228 nM. In addition, the “FC (fold change)” value in assay [2] came to 55.0.

B11: FKBP-198: FKBP13 DRD-AcGFP construct of Table 10 (protein)
chain: HCPIKSRKGDVLHMHYTGKLEDGTEFDSSLPRNQPFVFSLGTGERIKGWDQGLLGMCEGEWRKLVIPSELGYGERGWPPKIPGGATLVFEVELLKIER
modifications: Description of sequence: Construct Name: FKBP-198; Mutation(s): Q72R Q84E A117W V85R DRD K101W
As to B11, the EC90 in assay [2] (setting [3]) is 253 nM; in assay [2] (setting [4]), 274 nM. Besides, in assay [2], the “FC (fold change)” value amounted to 54.3.

B12: FKBP-196 (protein)
chain: HCPIKSRKGDVLHMHYTGKLEDGTEFDSSLPRNQPFVFSLGTGERIKGWDQGLLGMCEGEKRKLVIPSELGYGERGWPPKIPGGATLVFEVELLKVER
modifications: Description of sequence: Construct Name: FKBP-196; Mutation(s): Q72R Q84E A117W V85R DRD I136V
Regarding B12, the EC90 in assay [2] (setting [3]) was 115 nM; in assay [2] (setting [4]), 113 nM. Moreover, in assay [2], the “FC (fold change)” value was 34.7.

B13: FKBP-184 (protein)
chain: HCPIKGRKGDVLHAHYTGKLEDGTEFDSSLPRNQPFVFSLGTGERIKGWDQGLLGMCEGEKRKLVIPSELGYGERGWPPKIPGGATLVFEGELLKIER
modifications: Description of sequence: Construct Name: FKBP-184; Mutation(s): Q72R Q84E A117W V85R DRD M54A S36G V131G
Consider B13, for which, in assay [2], the “FC (fold change)” value is on record as 1.

B14: FKBP-160 (protein)
chain: HCPIKSRKGDVLHAHYTGKLEDGTEFDSSLPRNQPFVFSLGTGERIKGWDQGLLGMCEGEKRKLVIPSELGYGERGWPPKIPGGATLVFEVELLKIER
modifications: Description of sequence: Construct Name: FKBP-160; Mutation(s): Q72R Q84E A117W V85R DRD M54A
As to B14, the EC90 in assay [2] (setting [3]) worked out at 42.2 nM; in assay [2] (setting [4]), 48.2 nM. Further, the “FC (fold change)” value in assay [2] came out at 25.7.

B15: FKBP-200: FKBP13 DRD-AcGFP construct of Table 10 (protein)
chain: HCPIKSRKGDVLHMHYTGKLESGTEFDSSLPRNQPFVFSLGTGERIKGWDQGLLGMCEGEKRKLVIPSELGYGERGWPPKIPGGATLVFEVELLKIER
modifications: Description of sequence: Construct Name: FKBP-200; Mutation(s): Q72R Q84E A117W V85R DRD D62S
As to B15, the EC90 was 160 nM in assay [2] (setting [3]) and 150 nM in assay [2] (setting [4]). Moreover, the “FC (fold change)” value in assay [2] came to 33.9.

B16: FKBP-190 (protein)
chain: HCPIKSRKGDVLHAHYTGKLEDGTEFDSSLPRNQPFVFSLGTGERIKGWDQGLLGMCEGEKRKLVIPSELGYGERGWPPKIPGGATLVTEVELLKIER
modifications: Description of sequence: Construct Name: FKBP-190; Mutation(s): Q72R Q84E A117W V85R DRD M54A F129T
As to B16, the “FC (fold change)” value in assay [2] is 0.9.
